Source: paper PMC9680306

Key:
Assay in all cases: co-IP; anti-ARMS (mouse, MA1-90667) coupled MagPlex microspheres incubated overnight with cleared RIPA lysates of transfected HEK293 cells; bound TRPV1, ARMS or AKAP79 detected with rabbit antibodies and anti-rabbit-PE on FLEXMAP 3D (MFI); interaction ratio = TRPV1 MFI divided by ARMS MFI; cells untreated or treated with forskolin 50 uM + IBMX 100 uM, H89 10 uM or BPKDi 1 uM
[1] = target: ARMS0 (ARMS with all potential PKA sites mutated to alanine) (rat) (UniProt Q9EQG6)
[2] = target: ARMS_(S1251/52) (ARMS mutant keeping only the PKA site S1251/52) (rat) (UniProt Q9EQG6)
[3] = target: ARMS_(S1439/40) (ARMS mutant keeping only the PKA site S1439/40) (rat) (UniProt Q9EQG6)
[4] = target: ARMS_(S1526/27) (ARMS mutant keeping only the PKA site S1526/27) (rat) (UniProt Q9EQG6)
[5] = target: ARMS_(S882) (ARMS mutant keeping only the PKA site S882) (rat) (UniProt Q9EQG6)
[6] = target: ARMS_(T903) (ARMS mutant keeping only the PKA site T903) (rat) (UniProt Q9EQG6)
[7] = target: Ankyrin-rich membrane spanning protein (ARMS), wild type (rat) (UniProt Q9EQG6)

Substance: transient receptor potential vanilloid 1 (TRPV1)-YFP (from UniProt O35433 1-838)
- TRPV1 MFI / ARMS MFI in the ARMS precipitate, cells treated with BPKDi [1]: 2%
- TRPV1 MFI / ARMS MFI in the ARMS precipitate, cells treated with H89 [1]: 4%
- TRPV1 MFI / ARMS MFI in the ARMS precipitate, cells treated with forskolin + IBMX [1]: 6%
- TRPV1 MFI / ARMS MFI in the ARMS precipitate, untreated cells [1]: 5%
- TRPV1 MFI / ARMS MFI in the ARMS precipitate, cells treated with BPKDi [2]: 5%
- TRPV1 MFI / ARMS MFI in the ARMS precipitate, cells treated with H89 [2]: 6%
- TRPV1 MFI / ARMS MFI in the ARMS precipitate, cells treated with forskolin + IBMX [2]: 18%
- TRPV1 MFI / ARMS MFI in the ARMS precipitate, untreated cells [2]: 15%
- TRPV1 MFI / ARMS MFI in the ARMS precipitate, cells treated with BPKDi [3]: 3%
- TRPV1 MFI / ARMS MFI in the ARMS precipitate, cells treated with H89 [3]: 4%
- TRPV1 MFI / ARMS MFI in the ARMS precipitate, cells treated with forskolin + IBMX [3]: 6%
- TRPV1 MFI / ARMS MFI in the ARMS precipitate, untreated cells [3]: 7%
- TRPV1 MFI / ARMS MFI in the ARMS precipitate, cells treated with BPKDi [4]: 25%
- TRPV1 MFI / ARMS MFI in the ARMS precipitate, cells treated with H89 [4]: 36%
- TRPV1 MFI / ARMS MFI in the ARMS precipitate, cells treated with forskolin + IBMX [4]: 63%
- TRPV1 MFI / ARMS MFI in the ARMS precipitate, untreated cells [4]: 60%
- TRPV1 MFI / ARMS MFI in the ARMS precipitate, cells treated with BPKDi [5]: 4%
- TRPV1 MFI / ARMS MFI in the ARMS precipitate, cells treated with H89 [5]: 5%
- TRPV1 MFI / ARMS MFI in the ARMS precipitate, cells treated with forskolin + IBMX [5]: 7%
- TRPV1 MFI / ARMS MFI in the ARMS precipitate, untreated cells [5]: 10%
- TRPV1 MFI / ARMS MFI in the ARMS precipitate, cells treated with BPKDi [6]: 4%
- TRPV1 MFI / ARMS MFI in the ARMS precipitate, cells treated with H89 [6]: 7%
- TRPV1 MFI / ARMS MFI in the ARMS precipitate, cells treated with forskolin + IBMX [6]: 9%
- TRPV1 MFI / ARMS MFI in the ARMS precipitate, untreated cells [6]: 12%
- TRPV1 MFI / ARMS MFI in the ARMS precipitate, cells treated with BPKDi [7]: 3%
- TRPV1 MFI / ARMS MFI in the ARMS precipitate, cells treated with H89 [7]: 4%
- TRPV1 MFI / ARMS MFI in the ARMS precipitate, cells treated with forskolin + IBMX [7]: 9%
- TRPV1 MFI / ARMS MFI in the ARMS precipitate, untreated cells [7]: 9%
